These are literature values, as cited in paper PMC2957019 (Journal of labelled compounds & radiopharmaceuticals, 2009).

Where no end group is shown, it is not given here.

The conditions of this data set: incubation in serum.

For the substance “^125I-FROP-1: 12-amino acid synthetic peptide radiolabeled with iodine (EDYELMDLLAYL), selected by phage display for targeting thyroid carcinoma cells (also: 125I radiolabel)”, the “time to degradation in serum” value was ≤ 30 min.
